From US10941182 (Amgen, dated 2021)
One block for each binder: values may come before it. Starred links: 1 amine or outer side, 2 acyl side, 3 side chain; linkers in the order of their positions; H or OH if unused. Non-standard residues stand in square brackets, D forms with d. Primed or numbered codes have the meaning given here. *: point of attachment. AC4Abu = α-carboxy-4-aminobutyric acid, O=C(C(CCN[*:1])C(=O)[*:3])[*:2]; Oic = O=C(O)[C@@H]1C[C@@H]2CCCC[C@@H]2N1; Phe(4-Cl) = N[C@@H](Cc1ccc(Cl)cc1)C(=O)O; γGlu = O=C(O)[C@H](CCC(=O)[*:2])N[*:1]; NMeR = CN[C@@H](CCCNC(=N)N)C(=O)O; Tridecanoyl = CCCCCCCCCCCCC(=O)*; hArg = N=C(N)NCCCC[C@H](N)C(=O)O; Cha = N[C@@H](CC1CCCCC1)C(=O)O; αMeL = CC(C)C[C@](C)(N)C(=O)O; Aic = NC1(C(=O)O)Cc2ccccc2C1; αMeP = C[C@@]1(C(=O)O)CCCN1; Nle = CCCC[C@H](N)C(=O)O; Pip′ = not defined here; Deg = CCC(N)(CC)C(=O)O; AEEA = NCCOCCOCC(=O)O; Aib = CC(C)(N)C(=O)O; BLeu = β-leucine

Key:
human APJ receptor = biological target: T1, human APJ receptor (human, UniProt P35414 1-380); assay: cell-based or functional assay
T1 sequence (looked up): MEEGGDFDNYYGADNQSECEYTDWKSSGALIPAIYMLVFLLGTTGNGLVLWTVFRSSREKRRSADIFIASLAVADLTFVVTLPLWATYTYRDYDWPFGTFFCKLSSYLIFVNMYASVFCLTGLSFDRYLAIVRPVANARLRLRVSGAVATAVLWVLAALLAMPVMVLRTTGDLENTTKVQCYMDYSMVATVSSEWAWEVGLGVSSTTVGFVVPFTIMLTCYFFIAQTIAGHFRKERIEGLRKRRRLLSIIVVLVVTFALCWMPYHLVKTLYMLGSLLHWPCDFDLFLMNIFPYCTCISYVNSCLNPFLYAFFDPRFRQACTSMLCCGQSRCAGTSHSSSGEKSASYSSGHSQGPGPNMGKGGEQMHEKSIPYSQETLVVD

rat APJ receptor = biological target: T2, rat APJ receptor (rat, UniProt Q9JHG3 1-377); assay: cell-based or functional assay
T2 sequence (looked up): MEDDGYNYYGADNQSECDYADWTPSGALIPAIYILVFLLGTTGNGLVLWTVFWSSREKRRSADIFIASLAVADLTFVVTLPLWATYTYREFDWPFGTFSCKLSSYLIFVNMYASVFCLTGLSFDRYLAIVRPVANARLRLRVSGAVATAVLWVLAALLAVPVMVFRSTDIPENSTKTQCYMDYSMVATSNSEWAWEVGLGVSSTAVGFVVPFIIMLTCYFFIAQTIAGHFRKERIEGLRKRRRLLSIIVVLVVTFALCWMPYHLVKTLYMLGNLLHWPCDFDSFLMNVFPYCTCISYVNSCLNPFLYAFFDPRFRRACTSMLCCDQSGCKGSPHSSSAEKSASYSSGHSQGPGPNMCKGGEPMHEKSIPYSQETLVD

EC50 Human APJ Receptor (GTPγS assay) (human APJ receptor): 6.36 nM | EC50 Rat APJ Receptor (GTPγS assay) (rat APJ receptor): 16.5 nM
B1: Apelin polypeptide SEQ ID NO: 397 (peptide)
peptide: Tridecanoyl-[AC4Abu][AEEA][AEEA]Q[NMeR][αMeL]SHKG[Oic][Nle]P[Phe(4-Cl)]-OH
SMILES: CCCCCCCCCCCCC(=O)NCCC(C(=O)O)C(=O)NCCOCCOCC(=O)NCCOCCOCC(=O)N[C@@H](CCC(N)=O)C(=O)N(C)[C@@H](CCCNC(=N)N)C(=O)N[C@@](C)(CC(C)C)C(=O)N[C@@H](CO)C(=O)N[C@@H](Cc1c[nH]cn1)C(=O)N[C@@H](CCCCN)C(=O)NCC(=O)N1[C@H](C(=O)N[C@@H](CCCC)C(=O)N2CCC[C@H]2C(=O)N[C@@H](Cc2ccc(Cl)cc2)C(=O)O)C[C@@H]2CCCC[C@@H]21

EC50 Human APJ Receptor (GTPγS assay) (human APJ receptor): 0.584 nM | EC50 Rat APJ Receptor (GTPγS assay) (rat APJ receptor): 0.856 nM
B2: Apelin polypeptide SEQ ID NO: 392 (peptide)
peptide: Tridecanoyl-[AC4Abu][AEEA][AEEA]QR[αMeP][hArg][BLeu]SHKG[Oic][Nle]P[Phe(4-Cl)]-OH

EC50 Human APJ Receptor (GTPγS assay) (human APJ receptor): 158 nM | EC50 Rat APJ Receptor (GTPγS assay) (rat APJ receptor): 243 nM
B3: Apelin polypeptide SEQ ID NO: 525 (peptide)
peptide: Tridecanoyl-[γGlu][AEEA][AEEA][dQ][dE]P[NMeR][Cha]SHKG[Oic][Nle][Aib][Phe(4-Cl)]-OH
SMILES: CCCCCCCCCCCCC(=O)N[C@@H](CCC(=O)NCCOCCOCC(=O)NCCOCCOCC(=O)N[C@H](CCC(N)=O)C(=O)N[C@H](CCC(=O)O)C(=O)N1CCC[C@H]1C(=O)N(C)[C@@H](CCCNC(=N)N)C(=O)N[C@@H](CC1CCCCC1)C(=O)N[C@@H](CO)C(=O)N[C@@H](Cc1c[nH]cn1)C(=O)N[C@@H](CCCCN)C(=O)NCC(=O)N1[C@H](C(=O)N[C@@H](CCCC)C(=O)NC(C)(C)C(=O)N[C@@H](Cc2ccc(Cl)cc2)C(=O)O)C[C@@H]2CCCC[C@@H]21)C(=O)O

EC50 Human APJ Receptor (GTPγS assay) (human APJ receptor): 10.3 nM | EC50 Rat APJ Receptor (GTPγS assay) (rat APJ receptor): 35.9 nM
B4: Apelin polypeptide SEQ ID NO: 475 (peptide)
peptide: Tridecanoyl-[γGlu][AEEA][AEEA]QEP[NMeR]LSHKGP[Nle]P[Phe(4-Cl)]-OH
SMILES: CCCCCCCCCCCCC(=O)N[C@@H](CCC(=O)NCCOCCOCC(=O)NCCOCCOCC(=O)N[C@@H](CCC(N)=O)C(=O)N[C@@H](CCC(=O)O)C(=O)N1CCC[C@H]1C(=O)N(C)[C@@H](CCCNC(=N)N)C(=O)N[C@@H](CC(C)C)C(=O)N[C@@H](CO)C(=O)N[C@@H](Cc1c[nH]cn1)C(=O)N[C@@H](CCCCN)C(=O)NCC(=O)N1CCC[C@H]1C(=O)N[C@@H](CCCC)C(=O)N1CCC[C@H]1C(=O)N[C@@H](Cc1ccc(Cl)cc1)C(=O)O)C(=O)O

EC50 Human APJ Receptor (GTPγS assay) (human APJ receptor): 11 nM | EC50 Rat APJ Receptor (GTPγS assay) (rat APJ receptor): 11.4 nM
B5: Apelin polypeptide SEQ ID NO: 434 (peptide)
peptide: Tridecanoyl-[γGlu][AEEA][AEEA][dQ][hArg]P[dR][Deg]SHKG[Oic][Nle]P[Phe(4-Cl)]-OH
SMILES: CCCCCCCCCCCCC(=O)N[C@@H](CCC(=O)NCCOCCOCC(=O)NCCOCCOCC(=O)N[C@H](CCC(N)=O)C(=O)N[C@@H](CCCCNC(=N)N)C(=O)N1CCC[C@H]1C(=O)N[C@H](CCCNC(=N)N)C(=O)NC(CC)(CC)C(=O)N[C@@H](CO)C(=O)N[C@@H](Cc1c[nH]cn1)C(=O)N[C@@H](CCCCN)C(=O)NCC(=O)N1[C@H](C(=O)N[C@@H](CCCC)C(=O)N2CCC[C@H]2C(=O)N[C@@H](Cc2ccc(Cl)cc2)C(=O)O)C[C@@H]2CCCC[C@@H]21)C(=O)O

EC50 Human APJ Receptor (GTPγS assay) (human APJ receptor): 10.9 nM | EC50 Rat APJ Receptor (GTPγS assay) (rat APJ receptor): 68.2 nM
B6: Apelin polypeptide SEQ ID NO: 501 (peptide)
peptide: Tridecanoyl-[γGlu][AEEA][AEEA][dQ]R[αMeP][hArg][BLeu]SHKG[Pip′][Nle][Phe(4-Cl)]-OH

EC50 Human APJ Receptor (GTPγS assay) (human APJ receptor): 50 nM | EC50 Rat APJ Receptor (GTPγS assay) (rat APJ receptor): 54.8 nM
B7: Apelin polypeptide SEQ ID NO: 595 (peptide)
peptide: Tridecanoyl-[γGlu][AEEA][AEEA][dQ][hArg]P[dR][Cha]SHKG[Oic][Nle][Aic]-OH
SMILES: CCCCCCCCCCCCC(=O)N[C@@H](CCC(=O)NCCOCCOCC(=O)NCCOCCOCC(=O)N[C@H](CCC(N)=O)C(=O)N[C@@H](CCCCNC(=N)N)C(=O)N1CCC[C@H]1C(=O)N[C@H](CCCNC(=N)N)C(=O)N[C@@H](CC1CCCCC1)C(=O)N[C@@H](CO)C(=O)N[C@@H](Cc1c[nH]cn1)C(=O)N[C@@H](CCCCN)C(=O)NCC(=O)N1[C@H](C(=O)N[C@@H](CCCC)C(=O)NC2(C(=O)O)Cc3ccccc3C2)C[C@@H]2CCCC[C@@H]21)C(=O)O
